# Experimental data as given in IntAct's records for PubMed 20095964.
# B1: Junctophilin-2 (Mus musculus), Q9ET78 (parent)
# chain: MSGGRFDFDDGGAYCGGWEGGKAHGHGLCTGPKGQGEYSGSWNFGFEVAGVYTWPSGNTFEGYWSQGKRHGLGIETKGRWLYKGEWTHGFKGRYGIRQSTNSGAKYEGTWNNGLQDGYGTETYADGGTYQGQFTNGMRHGYGVRQSVPYGMAVVVRSPLRTSLSSLRSEHSNGTVAPDSPAADGPMLPSPPVPRGGFALTLLATAEAARPQGLFTRGTLLGRLRRSESRTSLGSQRSRLSFLKSELSSGASDAASTGSLAEGAEGPDDAAAPFDADIDATTTETYMGEWKNDKRSGFGVSERSSGLRYEGEWLDNLRHGYGRTTLPDGHREEGKYRHNVLVKGTKRRVLPLKSSKVRQKVEHGVEGAQRAAAIARQKAEIAASRTSHAKAKAEAAEQAALAANQESNIARTLAKELAPDFYQPGPEYQKRRLLQEILENSESLLEPPERGLGTGLPERPRESPQLHERETPQPEGGPPSPAGTPPQPKRPRPGASKDGLLSPGSWNGEPGGEGSRPATPSDGAGRRSPARPASEHMAIEALQPPPAPSQEPEVAMYRGYHSYAVRTGPPEPPPLEDEQEPEPEPEPEVRRSDSAPPSPVSATVPEEEPPAPRSPVPAKQATLEPKPIVPKAEPKAKARKTEARGLSKAGAKKKGRKEVAQAKEAEVEVEEVPNTVLICMVILLNIGLAILFVHLLT
# partner: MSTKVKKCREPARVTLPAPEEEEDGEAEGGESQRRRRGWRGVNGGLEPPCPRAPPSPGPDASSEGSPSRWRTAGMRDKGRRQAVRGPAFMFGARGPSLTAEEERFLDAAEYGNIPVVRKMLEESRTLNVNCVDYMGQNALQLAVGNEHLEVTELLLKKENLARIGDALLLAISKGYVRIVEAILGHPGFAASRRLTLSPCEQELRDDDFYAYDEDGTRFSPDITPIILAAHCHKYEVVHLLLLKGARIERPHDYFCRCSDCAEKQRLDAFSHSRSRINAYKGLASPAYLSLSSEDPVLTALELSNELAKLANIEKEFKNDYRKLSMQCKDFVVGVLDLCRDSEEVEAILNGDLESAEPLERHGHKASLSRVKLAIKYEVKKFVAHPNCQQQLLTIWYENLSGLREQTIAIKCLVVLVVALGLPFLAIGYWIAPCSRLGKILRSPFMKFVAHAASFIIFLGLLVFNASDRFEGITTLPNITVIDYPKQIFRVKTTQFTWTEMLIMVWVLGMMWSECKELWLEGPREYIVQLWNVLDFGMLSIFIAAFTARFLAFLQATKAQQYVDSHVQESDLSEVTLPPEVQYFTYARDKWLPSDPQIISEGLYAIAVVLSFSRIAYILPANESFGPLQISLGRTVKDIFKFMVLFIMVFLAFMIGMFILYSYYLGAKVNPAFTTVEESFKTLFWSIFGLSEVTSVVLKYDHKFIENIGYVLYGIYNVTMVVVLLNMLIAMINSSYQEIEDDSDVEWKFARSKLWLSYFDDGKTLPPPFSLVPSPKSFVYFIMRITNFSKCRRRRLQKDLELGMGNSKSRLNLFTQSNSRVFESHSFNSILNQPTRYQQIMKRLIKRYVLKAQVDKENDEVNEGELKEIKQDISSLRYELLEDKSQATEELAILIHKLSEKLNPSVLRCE
# Variants of: B1
# Conditions: with trpc3_mouse Trpc3, Q9QZC1
row,effect of a mutation on the interaction,Variant
1,decreasing interaction,S165F
